Where a chain is given by its changes, count along the chain named. Where two headings read alike, the source gives them in different places. Values belong to the binder of their own block, whether it stands above or below them.
Legend:
[1] = target: human mGluR5 extracellular domain (human-mGluR5-ECD) (human) (UniProt P41594); assay: HTRF, soluble ECD
[2] = target: human mGluR5 extracellular domain (human-mGluR5-ECD) (human) (UniProt P41594); assay: HTRF, soluble ECD; remark: listed apart in the source
[3] = target: full-length (FL) human mGluR5 on BA/F3-mGluR5 clone 10C9 cells (human) (UniProt P41594); assay: cell-based or functional assay
[4] = target: T1, rat mGluR5 extracellular domain (rat-mGluR5-ECD) (rat, UniProt P31424 21-504); assay: HTRF, soluble ECD
T1 construct: ECD construct made 'in a similar fashion' to the human one
T1 sequence (P31424 other isoform, or with tags, fused parts or gaps limits assumed, form in doubt): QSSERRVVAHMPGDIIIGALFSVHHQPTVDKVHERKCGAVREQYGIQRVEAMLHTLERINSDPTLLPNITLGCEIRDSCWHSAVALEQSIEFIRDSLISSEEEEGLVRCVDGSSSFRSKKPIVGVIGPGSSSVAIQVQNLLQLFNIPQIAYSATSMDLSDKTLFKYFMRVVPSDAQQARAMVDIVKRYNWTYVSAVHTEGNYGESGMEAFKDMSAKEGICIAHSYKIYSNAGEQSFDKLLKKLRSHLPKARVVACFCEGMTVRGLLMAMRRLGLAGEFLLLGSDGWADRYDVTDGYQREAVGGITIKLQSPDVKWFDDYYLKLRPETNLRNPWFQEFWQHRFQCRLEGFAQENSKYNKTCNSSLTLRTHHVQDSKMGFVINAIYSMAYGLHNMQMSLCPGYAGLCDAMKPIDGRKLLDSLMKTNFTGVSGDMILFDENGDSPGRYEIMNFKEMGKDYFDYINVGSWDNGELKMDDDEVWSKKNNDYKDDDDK
Experimental: (§1) Binding of antibodies to mGluR5/mGluRJ measured via Homogeneous Time-Resolved Fluorescence (HTRF). Binding assays were performed using HTRF reagents from CisBio. Ten microliters of an antibody dilution series (highest final concentration of 30 nM) was incubated with 10 μl of mGluR-ECD (10 nM final concentration) in HTRF buffer (50 mM Phosphate buffer pH7, 0.8M KF (potassium fluoride), 0.2% BSA). Twenty microliters of Europium-labeled anti-hu-Fc donor (2 nM final concentration, CisBio Catalog No. 61HFCKLB) and 20 μl of XL665-labeled anti-Flag acceptor (60 nM final concentration, CisBio Catalog No. 61FG2XLB) were added to each well and incubated for 1 hour at room temperature. Alternatively, the antibody dilution series was incubated with 10 μl of biotinylated mGluR-ECD (10 nM final concentration), and 20 μl of Europium-labeled anti-hu-Fc donor (2 nM final concentration) and 20 μl of d2-labeled streptavidin acceptor (60 nM final concentration, CisBio Catalog No. 610SADLB) were added to each well. Fluorescence was measured at 620 and 665 nm with a delay of 300 μsec. Results were expressed as the ratio of signal at 665 nm over 620 nm. EC₅₀ values were calculated for binding of Ab1-Ab23 to human-mGluR5-ECD, of Ab1-Ab21 to rat-mGluR5-ECD, and of Ab1, Ab2 and Ab4-Ab12 to monkey-mGluR5-ECD and to human-mGluR1-ECD (TABLE 1).

[5] = target: full-length (FL) human mGluR5 on BA/F3-mGluR5 clone 10C9 cells (human) (UniProt P41594); assay: flow cytometry, BA/F3-mGluR5 10C9 cells, 10 ug/ml antibody
[6] = target: T2, cynomolgus monkey mGluR5 extracellular domain (monkey-mGluR5-ECD) (cynomolgus monkey, UniProt P41594 21-580 (human entry), limits assumed); assay: HTRF, soluble ECD
T2 construct: ECD construct made 'in a similar fashion' to the human one; also called cyno-mGluR5
T2 sequence (P41594 other isoform, or with tags, fused parts or gaps limits assumed): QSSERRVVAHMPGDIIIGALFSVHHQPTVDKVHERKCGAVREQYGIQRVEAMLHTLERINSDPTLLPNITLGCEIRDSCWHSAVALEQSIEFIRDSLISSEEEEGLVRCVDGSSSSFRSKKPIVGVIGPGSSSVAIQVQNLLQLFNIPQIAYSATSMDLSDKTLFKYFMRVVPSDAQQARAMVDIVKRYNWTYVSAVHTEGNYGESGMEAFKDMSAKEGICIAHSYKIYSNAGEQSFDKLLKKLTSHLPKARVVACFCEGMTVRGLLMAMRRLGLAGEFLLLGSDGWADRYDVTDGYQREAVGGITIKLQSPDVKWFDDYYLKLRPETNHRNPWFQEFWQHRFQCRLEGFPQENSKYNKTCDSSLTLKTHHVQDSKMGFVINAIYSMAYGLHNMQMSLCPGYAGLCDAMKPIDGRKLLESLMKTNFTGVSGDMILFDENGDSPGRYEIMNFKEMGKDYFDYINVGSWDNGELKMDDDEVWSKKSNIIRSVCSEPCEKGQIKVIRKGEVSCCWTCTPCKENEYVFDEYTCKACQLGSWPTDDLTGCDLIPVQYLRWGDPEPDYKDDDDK
Experimental: as §1

[7] = target: T3, human mGluR1 extracellular domain (human-mGluR1-ECD) (human, UniProt Q13255 19-592, limits assumed); assay: HTRF, soluble ECD
T3 construct: ECD construct made 'in a similar fashion' to the human mGluR5 one; also called hu-mGluR1
T3 sequence (Q13255 other isoform, or with tags, fused parts or gaps limits assumed): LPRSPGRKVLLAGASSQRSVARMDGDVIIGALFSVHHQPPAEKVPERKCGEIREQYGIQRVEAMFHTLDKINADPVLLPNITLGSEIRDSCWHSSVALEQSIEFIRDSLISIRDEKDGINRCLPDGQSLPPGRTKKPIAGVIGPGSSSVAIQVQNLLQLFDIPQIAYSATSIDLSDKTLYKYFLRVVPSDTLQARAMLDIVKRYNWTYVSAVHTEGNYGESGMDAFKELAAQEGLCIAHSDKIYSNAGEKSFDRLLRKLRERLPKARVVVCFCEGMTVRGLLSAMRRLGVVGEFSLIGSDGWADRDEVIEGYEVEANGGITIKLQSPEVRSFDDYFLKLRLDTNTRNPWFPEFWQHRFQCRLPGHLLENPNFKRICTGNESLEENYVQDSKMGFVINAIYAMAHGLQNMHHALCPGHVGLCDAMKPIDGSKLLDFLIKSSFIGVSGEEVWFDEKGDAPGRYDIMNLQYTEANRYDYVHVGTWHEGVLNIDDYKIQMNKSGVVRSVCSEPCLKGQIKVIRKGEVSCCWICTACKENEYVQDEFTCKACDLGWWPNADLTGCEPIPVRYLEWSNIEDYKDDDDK
Experimental: as §1

Chain of human mGluR5 extracellular domain (human-mGluR5-ECD) (human) (P41594 other isoform, or with tags, fused parts or gaps): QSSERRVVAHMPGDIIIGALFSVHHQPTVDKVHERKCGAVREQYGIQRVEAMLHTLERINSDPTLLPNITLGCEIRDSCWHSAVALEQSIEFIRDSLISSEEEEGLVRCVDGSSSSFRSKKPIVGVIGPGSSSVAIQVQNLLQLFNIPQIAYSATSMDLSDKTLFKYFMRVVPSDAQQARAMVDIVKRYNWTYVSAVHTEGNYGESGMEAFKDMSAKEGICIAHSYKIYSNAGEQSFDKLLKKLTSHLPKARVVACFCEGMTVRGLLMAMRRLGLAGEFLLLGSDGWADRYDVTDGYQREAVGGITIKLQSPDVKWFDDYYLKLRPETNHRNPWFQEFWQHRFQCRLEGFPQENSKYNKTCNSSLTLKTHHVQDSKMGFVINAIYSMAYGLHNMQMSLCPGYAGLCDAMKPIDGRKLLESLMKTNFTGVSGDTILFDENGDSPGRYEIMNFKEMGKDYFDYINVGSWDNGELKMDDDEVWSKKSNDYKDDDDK

B1: mGluR5 Ab21 (antibody, V domains shown)
VH: QSLEESGGGLVQPGASLTLTCTASGFSFSSNYWICWVRQAPGKGLEWIGCIYTGTGITWYASWVNGRVTISSTSSTTVTLQVNSLTAADTATYFCARGSGDIAWAWDLWGQGTLVTVSS
VL: DVVMTQTPASVSAAVGGTVTIKCQASQSIYTNLAWYQQKPGQPPKLLIYKASTLASGVSSRFKGSGSGTEFTLTISGVQCADAATYYCQCTGYGSSGWTFGGGTEVVVKR
notes: Rabbit variable regions on human heavy and light chain constant regions (chimeric)
EC50 [1]: 0.684 nM | EC50 [2]: < 2 nM | pERK Assay Inhibition IC50-nM [3]: 1.41 nM | EC50 [4]: 0.229 nM | mGluR5 (FL) cell binding-fold over background [5]: 34.2 fold

B2: mGluR5 Ab16 (antibody, V domains shown)
VH: QSVEESGGRLVTPGTPLTLTCTASGFTISSYSMIWVRQAPGKGLESIGWINTGGSAYYANWAKGRFTISRTSTTVDLKMTSLTTEDTATYFCARDNNWSFNLWGQGTLVTVSS
VL: DIVMTQTPSSVSAAVGGTVTIKCQASQSIGTNLAWYQQKSGQPPKRLTYRASNLESGVPSRFKGSGSGTEFTLTISDLECADAATYYCQGGYYREGNSPTYPFGGGTEVVVKR
notes: as for B1
EC50 [1]: 0.439 nM | EC50 [2]: < 2 nM | pERK Assay Inhibition IC50-nM [3]: 0.17 nM | EC50 [4]: 0.427 nM | mGluR5 (FL) cell binding-fold over background [5]: 40 fold

B4: mGluR5 Ab19 (antibody, V domains shown)
VH: QEQLEESGGDLVKPEGSLTLTCTASGFSFSNYYYMCWVRQAPGKGLEWIACIYTSSGSTYYANWVNGRFTISRSTSLNTVTLQVTSLTAADTATYFCAKSFGVGGYSFNLWGQGTLVTVSS
VL: AYDMTQTPASVEVAVGGTVTIKCQASQSISSYLSWYQQKPGQRPKLLIYRASTLASGVSSRFKGSGSGTEYSLSISGMECDDAATYYCQQGTTISDVDNVFGGGTEVVVKR
notes: as for B1
EC50 [1]: 0.453 nM | EC50 [2]: < 2 nM | pERK Assay Inhibition IC50-nM [3]: 1.07 nM | EC50 [4]: 0.327 nM | mGluR5 (FL) cell binding-fold over background [5]: 38.3 fold

B5: mGluR5 Ab3 (antibody, V domains shown)
VH: QSLEESGGRLVTPGTPLTLTCTVSGIDLSSYAVGWVRQAPGKGLEYIGIIYASGNTWYASWVKGRFTISKTSTTVDLKLASLTTEDTATYFCARGHGATYDYFNLWGPGTLVTVSS
VL: AYDMTQTPASVEVAVGGTVTIKCQASQSISSYLAWYQQKPGQPPKLLIYDASDLASGVPSRFKGSGSGTEYTLTISGVQCDDAATYYCQQGLATANVDNVFGGGTEVVVKR
notes: as for B1
EC50 [1]: 0.536 nM | EC50 [2]: < 2 nM | pERK Assay Inhibition IC50-nM [3]: 3.91 nM | EC50 [4]: 0.487 nM | mGluR5 (FL) cell binding-fold over background [5]: 31.1 fold

B7: mGluR5 Ab14 (antibody, V domains shown)
VH: QQQLEESGGGLVKPGGTLTLTCKGSGIDFNDYYYMCWVRQAPGKGLEWIACIYNGDGETYYANWAKGRFTISKTSSTTVTLQMTSLTAADTATYFCARGSGVGSYGYNFWGQGTLVTVSS
VL: DIVMTQTPASVEAAVGGTVTIKCQASESIYSNLAWYQQKPGQPPKLLIYRASNLASGVPSRFKGSGSGTEFTLTISDLECADAATYYCQGYYASTVTNAFGGGTEVVVKR
notes: as for B1
EC50 [1]: 0.371 nM | EC50 [2]: < 2 nM | pERK Assay Inhibition IC50-nM [3]: 0.15 nM | EC50 [4]: 0.308 nM | mGluR5 (FL) cell binding-fold over background [5]: 40.6 fold

B8: mGluR5 Ab18 (antibody, V domains shown)
VH: QQQLEESGGGLVKPGGTLTLTCKASGLDFSNYHYMCWVRQAPGKRPEWIACIYNGDGTTYDASWAKGRFTSSKTSSTTVTLQMTSLTAADTATYFCARGSGVGSYGYNLWGQGTLVTVSS
VL: B7 VL with N53T, A55E, T95I, V96I
notes: as for B1
EC50 [1]: 0.491 nM | EC50 [2]: < 2 nM | pERK Assay Inhibition IC50-nM [3]: 0.15 nM | EC50 [4]: 0.395 nM | mGluR5 (FL) cell binding-fold over background [5]: 39.6 fold

B10: mGluR5 Ab23 (antibody, V domains shown)
VH: B7 VH with G24A, L46P, E58D, F109L
VL: B7 VL with N53T, V96I, A99V
EC50 [1]: 0.367 nM | EC50 [2]: < 2 nM | pERK Assay Inhibition IC50-nM [3]: 0.14 nM | mGluR5 (FL) cell binding-fold over background [5]: 37.9 fold

B11: mGluR5 Ab15 (antibody, V domains shown)
VH: QQLVESGGGLVKPGGTLTLTCKGSGIDFNDYYYICWVRQAPGKGLEWILCIYNGDGETYYANWAKGRFTISKTSSTTVTLQMTSLTGADTATYFCARGSGVGSYGYNFWGQGTLVTVSS
VL: B7 VL with S28N, A99G
notes: as for B1
EC50 [1]: 0.506 nM | EC50 [2]: < 2 nM | pERK Assay Inhibition IC50-nM [3]: 0.18 nM | EC50 [4]: 0.448 nM | mGluR5 (FL) cell binding-fold over background [5]: 41.3 fold

B13: mGluR5 Ab8 (antibody, V domains shown)
VH: QSVEESGGRLVTPGTPLTLTCSVSGIDLSSYAMSWVRQAPGKGLEWIGVIYASGSTYYASWAKGRFTISKTSTTVDLKITSPTTGDTATYFCVRDTTATYNYFNLWGQGTLVTVSS
VL: AYDMTQTPASVEVAVGGTATIKCQASQSIYNYLAWYQQKPGQPPKLLIYEASTLASGVPSRFKGSGSGTEFTLTISDLECADAATYYCQQSLSPSNVGRRVFGGGTEVVVKR
notes: as for B1
EC50 [1]: 0.748 nM | EC50 [2]: < 2 nM | pERK Assay Inhibition IC50-nM [3]: 2.29 nM | EC50 [6]: 0.322 nM | binding result [7]: no binding | mGluR5 (FL) cell binding-fold over background [5]: 32.1 fold

Now from value to binder:

EC50 [1]: 0.183 nM | EC50 [2]: < 2 nM | pERK Assay Inhibition IC50-nM [3]: 0.22 nM | EC50 [4]: 0.283 nM | mGluR5 (FL) cell binding-fold over background [5]: 37.4 fold
B3: mGluR5 Ab13 (antibody, V domains shown)
VH: QSLEESGGDLVKPGASLTLTCTASGFSFSSSDYMCWVRQAPGKGLEWIGCIYTGDGTTYYASWAKGRFTISKTSSTTVTLQMTSLTAADTATYFCARGAGVGSYGYNLWGPGTLVTVSS
VL: DIVMTQTPASVEAAVGDTVTINCQASQNIYSNLAWYQQKPGQPPKLLIYRASTLASGVPSRFKGSGSGTQFTLTISDLECADAATYYCQSYYASSISNYFGGGTEVVVKR
notes: as for B1

EC50 [1]: 0.269 nM | EC50 [2]: < 2 nM | pERK Assay Inhibition IC50-nM [3]: 0.14 nM | EC50 [4]: 0.497 nM | EC50 [6]: 0.371 nM | binding result [7]: no binding | mGluR5 (FL) cell binding-fold over background [5]: 40.8 fold
B6: mGluR5 Ab1 (antibody, V domains shown)
VH: B7 VH with G24V, N30S, D31S, N54A, E58G, N63S, I71S, N108S, F109L, Q112P
VL: B7 VL with A55E, V96T
notes: as for B1

EC50 [1]: 0.312 nM | EC50 [2]: < 2 nM | pERK Assay Inhibition IC50-nM [3]: 0.15 nM | EC50 [4]: 0.305 nM | mGluR5 (FL) cell binding-fold over background [5]: 40.4 fold
B9: mGluR5 Ab17 (antibody, V domains shown)
VH: QRQLEESGGGLVKPGGALTLTCKASGIDFSSYYYICWVRQAPGKGLEWIACIYAGDGTTYYATWAEGRFTSSKTSSTTVTLQMTSLTAADTATYFCARGSGVGSYGYNLWGQGTLVTVSS
VL: B7 VL with S28Y, N53T, A55E, Y92F, A93P, T95I, V96I
notes: as for B1

EC50 [1]: 0.364 nM | EC50 [2]: < 2 nM | pERK Assay Inhibition IC50-nM [3]: 2.36 nM | mGluR5 (FL) cell binding-fold over background [5]: 26.1 fold
B12: mGluR5 Ab20 (antibody, V domains shown)
VH: QSVEESGGRLVTPGTPLTLTCTVSGFSLSDYGLNWVRQAPGKGLEWIGIIYASGSTYYANWAKGRFTISKTSTTVDLKMTSPTTEDTATYFCVRDSSATYDYFNLWGPGTLVTVSS
VL: YDMTQTPASVEVAVGGTVTIKCQASQSISSYLAWYQQKPGQPPRLLIYGASNLASGVPSRFKGSGSGTEYTLTISDLECADAATYYCQQALSPSNVDNAFGGGTEVVVKR

Reference: patent US20220306734A1 (H LUNDBECK A S, published 2022)
